Publication doi:10.1101/2021.08.31.458345

Key:
[1] = target: gp41 subunit of ADA.CM.v4 Env (CTD truncated by 102 amino acids) (HIV-1 (subtype B isolate ADA)); experiment: cryo-EM structure
[2] = target: immature Gag polyprotein (pr55 Gag precursor) (HIV-1); experiment: cryo-EM structure

Substance	stoichiometry N [1]	stoichiometry N [2]
gp41 subunit of ADA.CM.v4 Env (CTD truncated by 102 amino acids) (domain or fragment)	3	–
immature Gag polyprotein (pr55 Gag precursor) (natural protein)	–	6
